Consider two substances from article PMC10206775.

Experiment [1] deals with BmTFF3 (β-subunit of βγ-CAT) (Bombina maxima (endogenous in skin secretions)).
Experiment [2] addresses Bombina maxima IgG Fc-binding protein (FCGBP) (Bombina maxima (endogenous in skin secretions)). In words: BLI; FCGBP (10 μg/ml, 0.01 M sodium acetate pH 4.0) amine-coupled to AR2G biosensors; βγ-CAT 1000-31.25 nM in PBS, association 300 s, dissociation 180 s; global fit, 1:1 binding model.

Turning to “BmALP1 (α-subunit of βγ-CAT) (natural protein)”, the dye release from calcein liposomes (fluorescence at 518 nm, % of maximum) by BmALP1 polymer (50 nM) with BmTFF3 (200 nM) and FCGBP at 25, 50 and 150 nM in experiment [1] is 76.8%.

βγ-CAT complex (BmALP1 and BmTFF3) had a Kd in experiment [2] of 0.0212 µM.
